Measurements reported in article PMC6222199 (Journal of Bacteriology, 2018).

B1: RR_1586 (response regulator encoded by CDR20291_1586), wild type, unphosphorylated (natural protein, Clostridioides difficile R20291, UniProt A0A9R0BKD1 1-223, looked up)
chain: MKVLIVEDNKILLESVVEELSKHFETEKCEDGEEALYLVNQNIYDLVILDLMLPNINGFDILKKMRVNNIDTPVLILTAKETLDDKVEAFTIGANDYLTKPFYMEELVARVYAILRTNGKIKERNGLEFKSLYLDTLEKRVYIEKEEIKLQNKQFNLLEYFVLNKGSILLKEQIYDRIWGIDSDATIEIVEVYVSNLRKKLSKYGYDKYIKTKRKVGYIFDDK
notes: also called apo-RR_1586; wild-type RR_1586
B2: phosphorylated RR_1586 (wild type treated with phosphoramidate) (natural protein, Clostridioides difficile R20291, UniProt A0A9R0BKD1 1-223, looked up)
chain: B1 chain
notes: also called phospho-RR_1586

Tests used:
[1] = target: the molecule itself; experiment: SEC-MALS; MiniDawn Treos MALS in line with a Superdex 200 Increase SEC column; without phosphoramidate
[2] = target: the molecule itself; experiment: SEC-MALS; MiniDawn Treos MALS in line with a Superdex 200 Increase SEC column; with the phosphoryl donor phosphoramidate (50 uM protein with 50 mM phosphoramidate in 20 mM Tris pH 8, 50 mM NaCl, 10 mM MgCl2, 10 min, room temperature)

Protein | stoichiometry N [1] | stoichiometry N [2]
B1 | 2 | 
B2 |  | 4
